Source: patent US20240226314A1 (Sanofi, published 2024)
Values joined by “and” are separate entries in the source; they are usually repeats but may differ in a detail not shown here. Equal values may be shown once. Read-outs that look alike come from different tables or passages of the source.

B1: His-tagged cynomolgus monkey TfR ectodomain (cyTFRC_89_760; mature protein) (receptor)
chain: CKGVEPKTECERLAGTESPAREEPEEDFPAAPRLYWDDLKRKLSEKLDTTDFTSTIKLLNENLYVPREAGSQKDENLALYIENQFREFKLSKVWRDQHFVKIQVKDSAQNSVIIVDKNGGLVYLVENPGGYVAYSKAATVTGKLVHANFGTKKDFEDLDSPVNGSIVIVRAGKITFAEKVANAESLNAIGVLIYMDQTKFPIVKADLSFFGHAHLGTGDPYTPGFPSFNHTQFPPSQSSGLPNIPVQTISRAAAEKLFGNMEGDCPSDWKTDSTCKMVTSENKSVKLTVSNVLKETKILNIFGVIKGFVEPDHYVVVGAQRDAWGPGAAKSSVGTALLLKLAQMFSDMVLKDGFQPSRSIIFASWSAGDFGSVGATEWLEGYLSSLHLKAFTYINLDKAVLGTSNFKVSASPLLYTLIEKTMQDVKHPVTGRSLYQDSNWASKVEKLTLDNAAFPFLAYSGIPAVSFCFCEDTDYPYLGTTMDTYKELVERIPELNKVARAAAEVAGQFVIKLTHDTELNLDYERYNSQLLLFLRDLNQYRADVKEMGLSLQWLYSARGDFFRATSRLTTDFRNAEKRDKFVMKKLNDRVMRVEYYFLSPYVSPKESPFRHVFWGSGSHTLSALLESLKLRRQNNSAFNETLFRNQLALATWTIQGAANALSGDVWDIDNEF
notes: also called cTfR; cTfR ectodomain
B2: 531v25Fab-FcOL (other)
heavy: QVQLVQSGAEVKKPGASVKVSCKASGYTFTRYYLNWVRQAPGQGLEWIGMIDPSVSETHYAQKFQGRATLTVDKSTSTAYMELSSLRSEDTAVYYCSQIRLPYYYAMDSWGQGTTVTVSSASTKGPSVFPLAPSSKSTSGGTAALGCLVKDYFPEPVTVSWNSGALTSGVHTFPAVLQSSGLYSLSSVVTVPSSSLGTQTYICNVNHKPSNTKVDKKVEPKSCDKTHTCPPCPAPELLGGPSVFLFPPKPKDTLMISRTPEVTCVVVDVSHEDPEVKFNWYVDGVEVHNAKTKPREEQYNNASRVVSVLTVLHQDWLNGKEYKCKVSNKALPAPIEKTISKAKGQPREPQVCTLPPSRDELTKNQVSLSCAVKGFYPSDIAVEWESNGQPENNYKTTPPVLDSDGSFFLVSKLTVDKSRWQQGNVFSCSVMHEALHNRFTQKSLSLSPG
light: not shown
chain: DKTHTCPPCPAPELLGGPSVFLFPPKPKDTLMISRTPEVTCVVVDVSHEDPEVKFNWYVDGVEVHNAKTKPREEQYNNASRVVSVLTVLHQDWLNGKEYKCKVSNKALPAPIEKTISKAKGQPREPQVYTLPPCRDELTKNQVSLWCLVKGFYPSDIAVEWESNGQPENNYKTTPPVLDSDGSFFLYSKLTVDKSRWQQGNVFSCSVMHEALHNHYTQKSLSLSPG
notes: Monovalent heterotrimer; It has a full IgG1 heavy chain (NNAS, hole, RF), a kappa light chain and an Fc polypeptide (knob) that dimerizes with the heavy chain
B3: cTfR: AviTag fused in the N-terminus of the ectodomain of cTfR (amino acid residues 90 to 760 of SEQ ID NO: 2) (receptor)
chain: GSHHHHHHHHGGGGSLNDIFEAQKIEWHGSKGVEPKTECERLAGTESPAREEPEEDFPAAPRLYWDDLKRKLSEKLDTTDFTSTIKLLNENLYVPREAGSQKDENLALYIENQFREFKLSKVWRDQHFVKIQVKDSAQNSVIIVDKNGGLVYLVENPGGYVAYSKAATVTGKLVHANFGTKKDFEDLDSPVNGSIVIVRAGKITFAEKVANAESLNAIGVLIYMDQTKFPIVKADLSFFGHAHLGTGDPYTPGFPSFNHTQFPPSQSSGLPNIPVQTISRAAAEKLFGNMEGDCPSDWKTDSTCKMVTSENKSVKLTVSNVLKETKILNIFGVIKGFVEPDHYVVVGAQRDAWGPGAAKSSVGTALLLKLAQMFSDMVLKDGFQPSRSIIFASWSAGDFGSVGATEWLEGYLSSLHLKAFTYINLDKAVLGTSNFKVSASPLLYTLIEKTMQDVKHPVTGRSLYQDSNWASKVEKLTLDNAAFPFLAYSGIPAVSFCFCEDTDYPYLGTTMDTYKELVERIPELNKVARAAAEVAGQFVIKLTHDTELNLDYERYNSQLLLFLRDLNQYRADVKEMGLSLQWLYSARGDFFRATSRLTTDFRNAEKRDKFVMKKLNDRVMRVEYYFLSPYVSPKESPFRHVFWGSGSHTLSALLESLKLRRQNNSAFNETLFRNQLALATWTIQGAANALSGDVWDIDNEF
modifications: site-specific biotinylation on N-terminal Avitag
notes: Immobilised on streptavidin probes for BLI; also called biotinylated cTfR ectodomain

How the values were obtained:
[1] = molecular target: T1, anti-TfR 531v25-Fab-FcOL-GAA; assay: SPR, His-tagged TfR ectodomain captured on anti-His, 1:1 fit
T1 construct: Monovalent Fab-FcOL with GAA fused to the C-terminus of the Fc polypeptide
Description: (§1) Binding of the humanized Fab variants to human, cynomolgus and mouse TfR was assessed using SPR at pH 7.4. Experiments were run on a Bruker MASS-2 instrument with HBS-EP+ as running buffer and sample diluent (Cytiva Life Sciences, #BR100826). HCA sensor chips (Bruker, #1862614) were immobilized with anti-His antibody (His capture kit, Cytiva Life Sciences, #28995056) following manufacturer's instructions. About 10,000 RU of anti-His was obtained. His-tagged hTfR ectodomain (SEQ ID NO: 39), cTfR ectodomain (SEQ ID NO: 40) or mouse TfR ectodomain (SEQ ID NO: 41) (5 μg/ml) was captured for 1 min at 10 μL/min. Concentration series of the humanized Fab variants were then injected for 4 min at 30 μL/min over hTfR surfaces and dissociation was monitored for 5 min. Surface was regenerated with one 1 min pulse of 10 mM glycine-HCl at pH 1.5.
(§2) Affinity by SPR was also measured for the 531v25-mAb-GAAx2 molecule (a GAA sequence fused to both HCs).

[2] = molecular target: T2, anti-TfR 531v25-Fab-FcOL-LC-GAA (Homo sapiens (Human), UniProt P0DOX5 223-448 = IgG part); assay: as above
T2 construct: Monovalent Fab-FcOL with GAA fused to the C-terminus of the light chain
Description: as §1, §2

[3] = molecular target: T3, hTfR: AviTag fused to the N-terminus of the ectodomain of human TfR (residues 90 to 760 of SEQ ID NO: 1) (human, UniProt P02786 90-760, site-specific biotinylation on N-terminal Avitag); assay: BLI (Octet), biotinylated AviTag-TfR ectodomain on streptavidin probes, 1:1 global fit
T3 construct: also called biotinylated hTfR ectodomain
Description: (§3) A 1:1 binding model with global fitting was applied after double subtraction for buffer and probe analyte interaction with a 0-90 second association and 0-60 dissociation window.

[4] = molecular target: B3; assay: as above
Description: as §3

[5] = molecular target: B3; assay: BLI; KD on cTfR against KD on hTfR
Description: as §3

[6] = molecular target: T3, hTfR: AviTag fused to the N-terminus of …; assay: BLI, immobilised AviTag-hTfR ectodomain, no saturation
Description: as §3, with “window. […] A 1:1 binding model with global fitting was applied after double subtraction for buffer and probe analyte interaction.” for “window.”

[7] = molecular target: T3, hTfR: AviTag fused to the N-terminus of …; assay: BLI, immobilised hTfR pre-saturated with 500 nM human holo-transferrin (competitor)
Description: as §3, with “window. […] A 1:1 binding model with global fitting was applied after double subtraction for buffer and probe analyte interaction.” for “window.”

[8] = molecular target: B3; assay: BLI; KD on cTfR against KD on hTfR
Description: as §3

[9] = molecular target: B1; assay: SPR, His-tagged TfR ectodomain captured on anti-His, 1:1 fit
Description: as §1

[10] = molecular target: T4, His-tagged human TfR ectodomain (hTFRC_89-760_G142S; mature protein) (human, UniProt P02786 89-760); assay: as above
T4 construct: It carries the G142S haplotype; also called hTfR ectodomain
Description: as §1

[11] = molecular target: T3, hTfR: AviTag fused to the N-terminus of …; assay: BLI (Octet), biotinylated AviTag-TfR ectodomain on streptavidin probes, 1:1 global fit; remark: listed apart in the source
Description: as §3

[12] = molecular target: B3; assay: as above
Description: as §3

[13] = molecular target: T1, anti-TfR 531v25-Fab-FcOL-GAA; assay: as above
Description: as §3

Binder: B1
Kd [1]: 89 nM | Kd [2]: 154 nM

Binder: B2
Kd [3]: 22.1 nM | Kd [4]: 103 nM | Cynomolgus/human KD ratio [5]: 4.7 | Kd [6]: 22.1 nM | Kd [7]: 44 nM | Cynomolgus/human KD ratio [8]: 4.7 | Kd [9]: 124 nM and 140 nM and 109 nM | Kd [10]: 11.8 nM and 15 nM and 8.5 nM | Kd [11]: 22.1 nM | Kd [12]: 103 nM

Binder: B3
Kd [13]: 69.9 nM
